Patent US10538583 (dated 2020)
Changes are numbered by the printed parent chain.

B1: mAb12 (antibody, V domains shown)
VH: QLVESGGGLVQPGGSLRLSCAASGFTFSTYSMRWVRQVPGKGLEWVSSIHTDAGGTAYRDSVKGRFTISRDNAKNTLYLQMNSLRPEDTAIYYCVIAGYSDWGQGTLVTVSS
VL: DIVMTQSPLSLSVTPGEPASISCKTSQGLVHSDGKTYFYWFLQKPGQSPQQLIYQVSNRASGVPDRFTGSGSGTDFTLKISRVKAEDVGVYYCAHGTYYPHTFGQGTRLEIK
B2: 5E5WT (5E5) IgG1 (antibody, V domains shown)
VH: QLQLVESGGGLVQPGGSLRLSCAASGFTFGTYSMRWVRQVPRKALEWVSSISTDGGGTAYRDSVKGRFTISRDNAKNTLYLQMNNLKPEDTAIYYCVIAGYSDWGQGTQVTVSS
VL: ATMLTQSPGSLSVVPGESASISCKTSQGLVHSDGKTYFYWFLQKPGQSPQQLIYQVSNRASGVPDRFTGSGSGTDFTLKISGVKAEDAGVYYCAQGTYYPHTFGSGTRLEIK
B3: 5E5VH5_VL8 IgG1 (antibody, V domains shown)
VH: B2 VH with S52H
VL: B2 VL with Q95H
B4: 5E5WT scFv-Fc (antibody, V domains shown)
VH: B2 VH
VL: B2 VL
B5: 5E5VHWT_VL8 scFv-Fc (antibody, V domains shown)
VH: B2 VH
VL: B2 VL with Q95H
B6: 5E5VH5_VLWT scFv-Fc (antibody, V domains shown)
VH: B2 VH with S52H
VL: B2 VL
B7: 5E5VH12_VLWT scFv-Fc (antibody, V domains shown)
VH: B2 VH with A99H
VL: B2 VL
B8: 5E5VH5VH12_VL8 IgG1 (antibody, V domains shown)
VH: B2 VH with S52H, A99H
VL: B2 VL with Q95H
B9: 5E5VH5VH12_VLWT IgG1 (antibody, V domains shown)
VH: B2 VH with S52H, A99H
VL: B2 VL
B10: 5E5VH12_VLWT IgG1 (antibody, V domains shown)
VH: B2 VH with A99H
VL: B2 VL
B11: 5E5VH12_VL8 IgG1 (antibody, V domains shown)
VH: B2 VH with A99H
VL: B2 VL with Q95H
B12: 5E5VH5_VLWT IgG1 (antibody, V domains shown)
VH: B2 VH with S52H
VL: B2 VL
B13: 5E5VHWT_VL8 IgG1 (antibody, V domains shown)
VH: B2 VH
VL: B2 VL with Q95H

molecular target: human ApoC3 (human); assay: SPR pH 7.4
Sequence (chain, as listed by the source): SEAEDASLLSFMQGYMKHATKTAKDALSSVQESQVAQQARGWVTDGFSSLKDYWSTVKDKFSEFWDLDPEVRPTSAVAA

Row | Binder | Kd [nM]
1 | B1 | 0.0655
2 | B2 | 0.0512
3 | B3 | 0.975

molecular target: human ApoC3 (human); assay: SPR pH 5.5

Row | Binder | Kd [nM]
4 | B4 | 0.06
5 | B5 | 4.29
6 | B6 | 10.9
7 | B7 | 16

molecular target: human ApoC3 (human); assay: SPR pH 5.5; remark: another data set of the same source

Row | Binder | binding result
8 | B8 | no binding

molecular target: human ApoC3 (human); assay: SPR pH 7.4; remark: another data set of the same source

Row | Binder | Kd [nM]
9 | B9 | 4.96
10 | B10 | 0.0351
11 | B2 | 0.0512
12 | B11 | 0.609
13 | B12 | 0.211
14 | B8 | 22.4
15 | B3 | 0.975
16 | B13 | 0.0363

molecular target: human ApoC3 (human); assay: SPR pH 7.4, antibody immobilized

Row | Binder | Kd [nM]
17 | B1 | 321
18 | B3 | 298

molecular target: human ApoC3 (human); assay: SPR pH 5.5; remark: another data set of the same source

Row | Binder | Kd [nM]
19 | B1 | 0.139
20 | B2 | 0.0499
21 | B3 | 11.4

molecular target: human ApoC3 (human); assay: SPR pH 5.5; remark: another data set of the same source

Row | Binder | Kd [nM]
22 | B9 | 20.2
23 | B10 | 1.02
24 | B2 | 0.0499
25 | B11 | 8.79
26 | B12 | 1.31
27 | B3 | 11.4
28 | B13 | 0.0556

molecular target: human ApoC3 (human); assay: SPR pH 5.5, antibody immobilized

Row | Binder | Kd [nM]
29 | B1 | 343

molecular target: human ApoC3 (human); assay: SPR pH 7.4; remark: another data set of the same source

Row | Binder | Kd [nM]
30 | B4 | 0.02
31 | B5 | 0.58
32 | B6 | 0.59
33 | B7 | 0.51
